A short description of the series: yeast display, Sf9 membrane polyspecificity reagent, FACS + sequencing; frameworks hold sequencing errors. The method, boiled down:
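A nanobody's polyreactivity label depends on the gate it was sorted from. Yeast display cells were stained with 10% biotinylated, detergent-solubilized Sf9 membrane reagent for 1 hour at 4 °C, enriched on streptavidin microbeads and sorted by FACS. The low and high (top ~1%) gates were set on anti-HA fluorescence for expression and streptavidin fluorescence for reagent binding.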
For “QVQLLESGGGLVQAGGSLRISCAASGSTFVRYPMGWYRQAPGKERELVAGISSGDRTYYADSVKGRFTISRDNAKNTVYLQMNSLKPEYTSVYYCNARPVYLLEGYYWGQGTQVTVSS”, the “polyreactivity (PSR sort gate)” value is recorded as “low polyreactivity”.

Regarding “QVQLLESGGGLVQAGGSLRISCAASGSTFVSNAMGWYRQAPGKERELVAAISRSAGRTYYADSVKGRFTISRDTAKNTVYLQMTSLKPEDTAVYYCAARVVHCFGFWGQGTQVTVSS”, the “polyreactivity (PSR sort gate)” value was “high polyreactivity”.

For “QVQLLESGGGLVQAGGSLRLSCAASGFNFGGYVMGWYRQAPGKESELVAAISSSGGITHYADSLKGRFTISRDNAKNTVSLQMNRLKPEDTAVYYCNALYRQRYYWGQGTQVTVSS”, the “polyreactivity (PSR sort gate)” value is “high polyreactivity”.

With “QVQLLESGGGLVQAGGSLRLSCAASGFNFYRYAMGWYRQAPGKERELVAAIRKSGGSTYYADSVKGRFTISRDNAKNTVYCQMNSLKPEDTAVSYCAKRYATDGFGYWGQGTQVSVSS”, the “polyreactivity (PSR sort gate)” value is “high polyreactivity”.

As to “QVQLLESGGGLVQAGGSLRLSCAASGFTFSRYAMGWYRQAPGKERELVAAITSSGGSTYYADSVKGRFTISRDNAKNTVYLQMLSLKPEDSAVYYCAAGKYTASNGYGYWGQGTQVTVSS”, the “polyreactivity (PSR sort gate)” value is “high polyreactivity”.

As to “QVQLLESGGGLVQAGGSLRLSCAASGGTFYSYAMGWYRQAPGKERELVATITRRSGSTYYADSVKGRFTISRDNAKNTVYLQMNSLKPEDTAVYYCAATKYKLLFIHFRYDYWGQGTQVTVSS”, the “polyreactivity (PSR sort gate)” value is listed as “high polyreactivity”.

As for “QVQLLESGGGLVQAGGSLRLSCAASGITFSQYAMGWYRQAPGKERELVAAISWSGGSTYYANSVKGRFTISRDNAKNTVYLQMNSLKPEDTAVYYCAAVPVHTGSLYWGFTTGYDYWGQGTQVTVSS”, the “polyreactivity (PSR sort gate)” value is reported as “low polyreactivity”.

Turning to “QVQLLESGGGLVQAGGSLRLSCAASGRIFDPYAMGWYRQAPGKERELVAAITGSGDGTYYADTVKGRYTISRYNAKNTVYLQMNRLKPEDTAVYYCAAVGRDRFVIHDYWGQGTQVTVSS”, the “polyreactivity (PSR sort gate)” value was “low polyreactivity”.

“QVQLLESGGGLVQAGGSLRLSCAASGRIFGYYTMGWYRQAPGKERELVAGITRRGGRTYYADSVKGRFTISRDNAKNTVYLEMNSLKPEDTAGYYCAVRSGVNFYYWGQGTQVTVSS”: the “polyreactivity (PSR sort gate)” value is listed as “high polyreactivity”.

In the case of “QVQLLESGGGLVQAGGSLRLSCAASGRIFSENAMGWYRQAPGKERELVAAITGNGGDTYYADSVKGRFTISRDNAMNTVYLQMNSLKPEDTAVYYSAAETGGLGGEYWGQGTHVTVSS”, the “polyreactivity (PSR sort gate)” value is listed as “low polyreactivity”.

As to “QVQLLESGGGLVQAGGSLRLSCAASGRIFVYNVMGWSRQAPGKERELVADINGSGGGTIFADSVKGRFTISRDNAKNNVYFQMNSLKPVDTAVYYCNADSYEYHVPYYDYRYDYWGHGTQVTVSS”, the “polyreactivity (PSR sort gate)” value is recorded as “low polyreactivity”.

As to “QVQLLESGGGLVQAGGSLRLSCAASGRIYLGYALGWYRQAPGKERELVAAITSSGGYTYYADSVKGRFTISLDNAKNTVYLQMNSLKPEDTAVYYCNVYRFGWWYTNDYWGQGTQVTVSS”, the “polyreactivity (PSR sort gate)” value is “high polyreactivity”.

As to “QVQLLESGGGLVQAGGSLRLSCAASGRMFGSNAMGWYRQAPGKERELVAAITRGGSTNYADSVKGRFTISRDNAKNTVYFQMNSLKPEDTAVYYCAVRWYRKYNYWGQGTQVTVSS”, the “polyreactivity (PSR sort gate)” value was “high polyreactivity”.

Turning to “QVQLLESGGGLVQAGGSLRLSCAASGSIFLFYDMGLYRHAPGKERELVATITSGTNTYADSVKGRFTISRDNAKNTGYLQMNSLKPEDTAVYSCAAGFSTASQLDYWGQVTQVTVSS”, the “polyreactivity (PSR sort gate)” value is on record as “low polyreactivity”.

Consider “QVQLLESGGGLVQAGGSLRLSCAASGSIFPAYSMGWYRQAPGKERELVASITGSGGSTYYADSVKGRFTISRDNAKNSVYLQMTSLKPEETAVYYCNARYYVYSATVDRYYHFYYWGQGTQVTVSS”, for which the “polyreactivity (PSR sort gate)” value is reported as “high polyreactivity”.

For the sequence “QVQLLESGGGLVQAGGSLRLSCAASGSIFYYYTMGWYRQAPGKETELVAAISRGGSTNYADSVKGRFTISRDNAKNTVYLQMNSLKPEDTAVYYCAADRLSGRYAYRFDYWGQGTQVTVSS”, the “polyreactivity (PSR sort gate)” value is on record as “low polyreactivity”.

Consider “QVQLLESGGGLVQAGGSLRLSCAASGSIIRQNGMVWYRPAPGKEREFVAAITRTGGSTYYADSVKGRFTISRDNAKNTVYLHMNSLKPEDTAGYYCAARGGYRYTRYDYWGQGTQVTVSS”, for which the “polyreactivity (PSR sort gate)” value is “high polyreactivity”.

With “QVQLLESGGGLVQAGGSLRLSCAASGSPFYYYARGWYRQAPGKERELVARITYGGSRTYYADSVKGRFTISRDNAKYTVYLQMNSLKPEDTAVYYCNAGRVLYGYYLYDYWGQGTQLTVSS”, the “polyreactivity (PSR sort gate)” value is listed as “high polyreactivity”.

Consider “QVQLLESGGGLVQAGGSLRLSCAASGSTFDRNTMGWYRQAPGTVRELVAAITWSSGSTYYADSVKGRFTISRDNAKNTVYLQMNSLKPEDTAVYYCAADRIRYRSRHKYGYWVQGTQVTVSS”, for which the “polyreactivity (PSR sort gate)” value is recorded as “low polyreactivity”.

With “QVQLLESGGGLVQAGGSLRLSCAASGSTFDYKSMGWYRQAPGKERELVATINDSGGNTYYADSVKGRFTISRDNAKNTVYLQMNSLKPEDTAVYYCATVGYLYTPVVVTWWDWGDYWGQGTQVTVSS”, the “polyreactivity (PSR sort gate)” value is “low polyreactivity”.

With “QVQLLESGGGLVQAGGSLRLSCAASGSTFRWYAMGWYRQAPGRERELVAAITWSGGRTYYADSVKGRFTISRDNAKNTVYLQMNSLKPEYTAVYYCNAVYYHVVDFDYWGQGTQVTVSS”, the “polyreactivity (PSR sort gate)” value was “high polyreactivity”.

On to “QVQLLESGGGLVQAGGSLRLSCAASGSTFTYNAMGWYRQAPGKERELVAAISSSGGSTYYADSVKGRFTISRDNAKNTVYLQMTSLNPEDTAVYYCAKRWLYTSAFRKMDYWGQGTQVTVSS”, for which the “polyreactivity (PSR sort gate)” value is “high polyreactivity”.

As for “QVQLLESGGGLVQAGGSLRLSCAASVFTFYGYAMGWYRQAPGKERELVAAISRRGGSTYYADSVKGRFTISRDNAKNTVYLQMNSLKPEDTAVYYCATDRAYYHSYGRFGYWGQGTQVTVSS”, the “polyreactivity (PSR sort gate)” value is on record as “high polyreactivity”.

In the case of “QVQLLESGGGLVQAGGSLRLSCAPSGFTYRYNAMVWYRQAPGIERELVAAISSRGGSTYYADSVKGRFTISRDNAKNTVYFQMNSLKPEDTGVYYCARDDWVYTNVEMDYWGQGTQVTVSS”, the “polyreactivity (PSR sort gate)” value is recorded as “high polyreactivity”.

For the sequence “QVQLLESGGGLVQAGGSLRLSCAPSGRTFARYDMAWYTQAPGKERELVAVISRTGSTYYADSVKGSFTISRDNEKITVYLLMNSLKPEDTAVYYCATVYVYWGQGTQVTVSS”, the “polyreactivity (PSR sort gate)” value is on record as “high polyreactivity”.

Take “QVQLLESGGGLVQAGGSLRLSSAASGSILDHYAMGWYRQAPGNEREFVAAISIRGGSTYYADSVKGRFTISRDNAKNTVFLQMNSLKPEDNAVYYCAATAQYGRDSWSSYRMFPPYDYWGQGTEVTVSS”: the “polyreactivity (PSR sort gate)” value is reported as “low polyreactivity”.

Turning to “QVQLLESGGGLVQAGGSLRLSSMASASILGDRMSWYRQAPGKEHELVATIYDGGISYYADSMKGRFTISRDNAKNTVYLQMNSLRPEDTAVFFCGASFEGYRFHVYCGQGTQVTVSS”, the “polyreactivity (PSR sort gate)” value was “low polyreactivity”.

Turning to “QVQLLESGGGLVQAGGSLRLTCGASGITFSVNTMGWYRQAPGKDRELVAAFTSAGGTYYADSVKGRFTISRDTAKNTVYFQMISQKPEDTAVYYCATPYDIQWASESHDYWGQGTQVTVSS”, the “polyreactivity (PSR sort gate)” value is “low polyreactivity”.

On to “QVQLLESGGGLVQAGRSLCLSCAASGSIIINAMGWYRQAPGKERELVATIRWRGGTTYYADSVKGRFTISRDNAKNTVYLQRNSLKPEDTAVYYCAADRSYYPDPRTTYGYNYWGQGTQVTVSS”, for which the “polyreactivity (PSR sort gate)” value was “low polyreactivity”.

For the sequence “QVQLLESGGGLVQAGVSHRLSCASSGFIFTYYAMGWYRQAPGKESELVASISTYGGNTNYADSVKGRFTISRDNAKNTVYIQMNSLIPEDTAVYYCAARIGNQYHTGYPTAGRKYGYWGQGTQVSVSS”, the “polyreactivity (PSR sort gate)” value is reported as “high polyreactivity”.

Values taken from the nanobody polyreactivity screen of Harvey et al. (2022).
